Laboratory results reported in article PMC10226619, “The SAGA HAT module is tethered by its SWIRM domain and modulates activity of the SAGA DUB module” (Biochimica et biophysica acta. Gene regulatory mechanisms, 2023).

T1: Spt7 with a C-terminal TAP tag (S. cerevisiae, UniProt P35177 1-1332)
T1 construct: Spt7, SAGA core subunit, S. cerevisiae; expressed at endogenous level; SAGA was captured on IgG Sepharose by the TAP tag and released from the beads by TEV cleavage of the tag; also called Spt7-TAP; not shown: TAP, C-terminal, kept
T1 sequence (looked up): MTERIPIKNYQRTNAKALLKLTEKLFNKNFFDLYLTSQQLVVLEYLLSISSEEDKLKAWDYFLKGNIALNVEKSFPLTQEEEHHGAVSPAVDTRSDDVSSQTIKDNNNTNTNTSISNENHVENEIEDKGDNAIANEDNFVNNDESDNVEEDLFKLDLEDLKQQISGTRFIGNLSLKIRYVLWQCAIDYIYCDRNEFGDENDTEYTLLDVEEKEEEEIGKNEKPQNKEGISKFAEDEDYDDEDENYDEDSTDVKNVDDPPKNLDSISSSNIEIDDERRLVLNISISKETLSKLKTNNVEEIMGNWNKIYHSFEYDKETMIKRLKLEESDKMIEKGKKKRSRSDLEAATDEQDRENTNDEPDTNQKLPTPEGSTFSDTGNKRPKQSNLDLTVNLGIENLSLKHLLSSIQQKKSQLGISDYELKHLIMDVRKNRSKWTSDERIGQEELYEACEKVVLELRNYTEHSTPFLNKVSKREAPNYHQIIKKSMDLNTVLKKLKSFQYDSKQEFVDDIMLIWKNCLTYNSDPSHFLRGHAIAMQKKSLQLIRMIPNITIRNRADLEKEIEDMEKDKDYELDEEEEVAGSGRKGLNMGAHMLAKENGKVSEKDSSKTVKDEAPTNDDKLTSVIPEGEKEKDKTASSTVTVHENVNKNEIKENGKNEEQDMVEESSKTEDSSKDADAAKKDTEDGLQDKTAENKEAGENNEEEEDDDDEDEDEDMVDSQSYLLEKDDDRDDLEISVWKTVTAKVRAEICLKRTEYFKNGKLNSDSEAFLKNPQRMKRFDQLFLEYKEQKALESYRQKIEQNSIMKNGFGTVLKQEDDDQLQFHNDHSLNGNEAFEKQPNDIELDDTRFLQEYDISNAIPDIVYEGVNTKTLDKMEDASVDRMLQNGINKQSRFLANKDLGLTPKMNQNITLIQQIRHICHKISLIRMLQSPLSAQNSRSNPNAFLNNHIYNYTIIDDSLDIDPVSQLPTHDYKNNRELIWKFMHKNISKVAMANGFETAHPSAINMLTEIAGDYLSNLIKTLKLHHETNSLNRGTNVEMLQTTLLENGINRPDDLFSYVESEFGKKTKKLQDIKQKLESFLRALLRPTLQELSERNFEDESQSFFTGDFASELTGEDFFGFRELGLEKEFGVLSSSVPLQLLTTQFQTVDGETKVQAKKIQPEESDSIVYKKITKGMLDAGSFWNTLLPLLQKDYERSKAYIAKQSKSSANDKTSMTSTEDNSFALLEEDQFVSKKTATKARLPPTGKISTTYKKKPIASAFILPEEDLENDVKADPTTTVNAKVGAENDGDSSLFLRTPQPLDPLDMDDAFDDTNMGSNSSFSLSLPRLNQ

B1: Sgf29 (endogenous) (natural protein, S. cerevisiae (endogenous in yeast), UniProt P25554 1-259, looked up)
chain: MDGYWDVVVSSLQDIYNANEVIPFDDELQTKKLNFLNMSKDQLQLHLNTFQEHMENVNRVHRILDNVRSNLSLMLNQSREEKSEENTEDAEEGEGTRMALSQGKKAVGKVGRSYWTSEYNPNAPILVGSEVAYKPRRGSADGEWIQCEVLKVVADGTRFEVRDPEPDELGNSGKVYKCNRKELLLIPPGFPTKNYPPGTKVLARYPETTTFYPAIVIGTKRDGTCRLRFDGEEEVDKETEVTRRLVLPSPTALANLARK
notes: Sgf29, SAGA HAT module subunit, S. cerevisiae; source: endogenous, S. cerevisiae lysate / whole cell extract
B2: Gcn5 (endogenous) (enzyme, S. cerevisiae (endogenous in yeast), UniProt Q03330 1-439, looked up)
chain: MVTKHQIEEDHLDGATTDPEVKRVKLENNVEEIQPEQAETNKQEGTDKENKGKFEKETERIGGSEVVTDVEKGIVKFEFDGVEYTFKERPSVVEENEGKIEFRVVNNDNTKENMMVLTGLKNIFQKQLPKMPKEYIARLVYDRSHLSMAVIRKPLTVVGGITYRPFDKREFAEIVFCAISSTEQVRGYGAHLMNHLKDYVRNTSNIKYFLTYADNYAIGYFKKQGFTKEITLDKSIWMGYIKDYEGGTLMQCSMLPRIRYLDAGKILLLQEAALRRKIRTISKSHIVRPGLEQFKDLNNIKPIDPMTIPGLKEAGWTPEMDALAQRPKRGPHDAAIQNILTELQNHAAAWPFLQPVNKEEVPDYYDFIKEPMDLSTMEIKLESNKYQKMEDFIYDARLVFNNCRMYNGENTSYYKYANRLEKFFNNKVKEIPEYSHLID
notes: Gcn5, histone acetyltransferase subunit of the SAGA HAT module, S. cerevisiae; source: endogenous, S. cerevisiae lysate / whole cell extract
B3: Ada3 (endogenous) (natural protein, S. cerevisiae (endogenous in yeast), UniProt P32494 1-702, looked up)
chain: MPRHGRRGKLPKGEKLPKKEGGDNTPSKLLSSMLKTLDLTFERDIGMLNGKSVRSIPNKKTLLELQSQLDSLNEILGTIARGDQETIEALRKIRDSKNEKQANDEKQETSNADGQHESSTATEETNIIDKGVQSPPKPPPSNEISGTIENDVESIKQAADNMAKEEINEDKDLQVHRDQPREKRPFDSETENRATENENTQRPDNKKQKIDVDKMENDPTVKNPKSEFVVSQTLPRAAAALGLFNEEGLESTGEDFLKKKYNVASYPTNDLKDLLPGELPDMDFSHPKPTNQIQFNTFLAFVENFFKDLSDDNLKFLKMKYIIPDSLQFDKTYDPEVNPFIIPKLGPLYTDVWFKDENDKNSAYKKPSPYSNDASTILPKKSANELDDNALESGSISCGPLLSRLLSAVLKDDNDKSELQSSKIIRDGGLPRTGGEDDIQSFRNNNNDTVDMTLSQENGPSVQTPDNDIDEEASFQAKLAENKGSNGGTTSTLPQQIGWITNGINLDYPTFEERLKRELKYVGIYMNLPKDENNPNSDDPDWVTGREDDEISAELRELQGTLKQVTKKNQKRKAQLIPLVERQLAWQEYSSILEDLDKQIDQAYVKRIRVPKKRKKHHTAASNNVNTGTTSQIAQQKAANSSLKSLLDKRQRWINKIGPLFDKPEIMKRIPNESVFKDMDQEEDEDEADVFAQNTNKDVELN
notes: Ada3, SAGA HAT module subunit, S. cerevisiae; source: endogenous, S. cerevisiae lysate / whole cell extract
B4: Ada2 ΔSWIRM (Δ residues 349–434, chromosomal deletion) (natural protein, S. cerevisiae, UniProt Q02336 1-434, looked up)
chain: MSNKFHCDVCSADCTNRVRVSCAICPEYDLCVPCFSQGSYTGKHRPYHDYRIIETNSYPILCPDWGADEELQLIKGAQTLGLGNWQDIADHIGSRGKEEVKEHYLKYYLESKYYPIPDITQNIHVPQDEFLEQRRHRIESFRERPLEPPRKPMASVPSCHEVQGFMPGRLEFETEFENEAEGPVKDMVFEPDDQPLDIELKFAILDIYNSRLTTRAEKKRLLFENHLMDYRKLQAIDKKRSKEAKELYNRIKPFARVMTAQDFEEFSKDILEELHCRARIQQLQEWRSNGLTTLEAGLKYERDKQARISSFEKFGASTAASLSEGNSRYRSNSAHRSNAEYSQNYSEN
notes: Ada2, S. cerevisiae, without the SWIRM domain (residues 349–434 substituted with KanMX in the gene); source: S. cerevisiae strain YCW20, SWIRM domain deleted by homologous recombination, in lysate

Biological target: T1, Spt7 with a C-terminal TAP tag
Experiment: affinity purification with mass spectrometry; SAGA purified by Spt7-TAP from yeast with the Ada2 SWIRM domain deleted (YCW20): IgG Sepharose, TEV cleavage, HiTrap Q; LC-MS/MS, total spectrum counts normalized to Spt7
Settings: partners not purified

Row | Binder | fold depletion against wild type SAGA
1 | B1 | ~7 fold
2 | B2 | ~7 fold
3 | B3 | ~7 fold
4 | B4 | ~7 fold
